Changes are numbered by the printed parent chain.
B1: PR001356 (antibody, human IgG1, kappa, V domains shown)
VH: QVQLVESGGGVVQPGRSLRLSCAASGFTFSSYGMHWVRQAPGKGLEWVAVAWYDGVSEDYADSVKGRFTISRDNAKNTLYLQMNSLRAEDTAVYYCAREQARSFDLWGRGTLVTVSS
VL: DIVMTQSPSTLSASVGDRVTITCRASQSINNWLAWYQQKPGKAPKLLIYKASSLESGVPSRFSGSGSGTEFTLTISSLQPDDFATYYCQQYKSYSPMYTFGQGTKVEIKR
notes: fully human IgG1, kappa; also called anti-ROR1 1015M2-E6 hIgG1; PR001356(WT)
B2: PR001366 (antibody, V domains shown)
VH: B1 VH with A23T, A51K, V56I, E58Q, D59N, Y60F, A75S, E99D, Q100L, L106I
VL: B1 VL with V3Q, M4L, N31S, E107D
notes: fully human IgG1, kappa
B3: PR001361 (antibody, V domains shown)
VH: B1 VH with E6Q, A23T, S31R, H35L, A75S, K76M, Y80S
VL: B1 VL with V3Q, M4L, N31S, E107D
notes: fully human IgG1, kappa
B4: PR001358 (antibody, human IgG1, kappa, V domains shown)
VH: B1 VH with E6Q, G33A, V50I, A51M, V56S, S57N, E58T, N74T, A75S, Y80F
VL: B1 VL with N31S, S53N, E107D
notes: fully human IgG1, kappa
B5: PR001352 (antibody, human IgG1, kappa, V domains shown)
VH: B1 VH with Q1E, V5L, A51K, V56I, E58Q, D59N, Y60F, A75S, E99D, Q100L
VL: B1 VL with V3Q, M4L, T10S, S28T, K92N
notes: fully human IgG1, kappa
B6: PR001370 (antibody, V domains shown)
VH: B1 VH with Q1E, V5L, A51K, V56I, E58Q, D59N, Y60F, A75S, E99D, Q100L
VL: B1 VL with K92N, E107D
notes: fully human IgG1, kappa
B7: PR001365 (antibody, human IgG1, kappa, V domains shown)
VH: B1 VH with E6Q, A51I, V56S, S57D, E58K, N74T, A75S
VL: B1 VL with V3Q, S9Y, T10S, S28T, S93L
notes: fully human IgG1, kappa
B8: PR001364 (antibody, human IgG1, kappa, V domains shown)
VH: B1 VH with Q1E, V5L, Y32F, A51I, V56S, S57D, E58K, N74T, A75S
VL: B1 VL with S28T, K92N
notes: fully human IgG1, kappa; also called anti-ROR1 1015M3-D8 hIgG1; PR001364(WT)
B9: PR001369 (antibody, human IgG1, kappa, V domains shown)
VH: B1 VH with S31N, M34I, V50I, A51M, V56S, S57N, E58T, N74T, A75S, Y80F
VL: B1 VL with S28T, K92N
notes: fully human IgG1, kappa; also called anti-ROR1 1015M3-H10 hIgG1; PR001369(WT)
B10: PR001363 (antibody, human IgG1, kappa, V domains shown)
VH: B1 VH with T28S, G33A, K43R, A51I, V56G, S57D, Y60S, A61I, N74D, A75S
VL: B1 VL with I2V, S28T, K92N
notes: fully human IgG1, kappa
B11: PR001371 (antibody, human IgG1, kappa, V domains shown)
VH: B1 VH with H35L, A75S, K76M, Y80S
VL: B1 VL with V3Q, M4L, T10S, S28T, K92N
notes: fully human IgG1, kappa
B12: PR001360 (antibody, human IgG1, kappa, V domains shown)
VH: B1 VH with A51I, V56S, S57D, E58K, Y60S, A61V, N74D, A75S
VL: B1 VL with V3Q, S28T, K92N, S93I
notes: fully human IgG1, kappa
B13: PR001368 (antibody, V domains shown)
VH: B1 VH with S31T, A51I, V56S, S57D, E58T, N74T, A75S
VL: B1 VL with N31S
notes: fully human IgG1, kappa
B14: PR001367 (antibody, human IgG1, kappa, V domains shown)
VH: B1 VH with T28S, G33A, K43R, A51I, V56G, S57D, A61I, N74D, A75S
VL: B1 VL with I2V, S28T, K92N
notes: fully human IgG1, kappa

These binders were tested against T1, ROR1 (antigen of the KD determination and of the Octet dissociation measurement) (UniProt Q01973 30-403, limits assumed) (assay: method not stated (conventional procedures)).
T1 sequence (Q01973 30-403 limits assumed): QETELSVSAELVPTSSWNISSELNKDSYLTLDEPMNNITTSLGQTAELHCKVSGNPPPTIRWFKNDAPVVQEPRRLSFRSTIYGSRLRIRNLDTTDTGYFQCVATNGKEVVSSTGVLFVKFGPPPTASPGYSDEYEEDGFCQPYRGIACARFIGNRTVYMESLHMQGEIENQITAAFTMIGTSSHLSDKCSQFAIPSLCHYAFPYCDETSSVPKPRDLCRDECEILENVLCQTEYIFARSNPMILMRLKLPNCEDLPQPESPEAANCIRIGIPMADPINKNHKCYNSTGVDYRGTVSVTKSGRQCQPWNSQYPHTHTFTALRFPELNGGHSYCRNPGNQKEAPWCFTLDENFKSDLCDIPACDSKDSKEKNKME

Row | Binder | Kd [nM] | koff [s⁻¹] | kon [M⁻¹ s⁻¹]
1 | B1 | 0.81 | 0.000287 | 354000
2 | B2 | 1.67 | 0.00075 | 448000
3 | B3 | 1.83 | 0.00108 | 590000
4 | B4 | 1.07 | 0.000518 | 482000
5 | B5 | 1.51 | 0.000476 | 316000
6 | B6 | 3.97 | 0.00113 | 285000
7 | B7 | 0.237 | 7.72e-05 | 325000
8 | B8 | 1.2 | 0.000376 | 314000
9 | B9 | 1.69 | 0.000519 | 307000
10 | B10 | 2.9 | 0.00101 | 348000
11 | B11 | 1.76 | 0.000525 | 298000
12 | B12 | 0.804 | 0.000248 | 309000
13 | B13 | 2.16 | 0.000867 | 402000
14 | B14 | 3.06 | 0.00104 | 341000

Each binder was assayed against T2, hROR2ECD-his (human, UniProt Q01974 34-403) (assay: ELISA, plate coated with hROR2 ECD-his).
T2 construct: extracellular domain; bought, Acrobiosystems R02-H52E5; also called huROR2-his
T2 sequence (Q01974 34-403): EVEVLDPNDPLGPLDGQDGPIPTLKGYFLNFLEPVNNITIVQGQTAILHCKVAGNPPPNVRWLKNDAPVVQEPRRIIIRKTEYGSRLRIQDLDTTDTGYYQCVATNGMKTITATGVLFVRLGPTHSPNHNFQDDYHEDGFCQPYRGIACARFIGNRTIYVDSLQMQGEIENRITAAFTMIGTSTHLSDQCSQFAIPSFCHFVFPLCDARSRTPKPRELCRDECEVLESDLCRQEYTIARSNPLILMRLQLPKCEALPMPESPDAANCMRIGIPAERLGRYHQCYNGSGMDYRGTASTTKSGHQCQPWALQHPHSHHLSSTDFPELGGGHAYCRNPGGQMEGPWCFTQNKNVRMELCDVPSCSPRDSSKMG
Protocol: (§1) Screening by ELISA assay: 96-well plates (Corning 9018) were coated with 1 μg/mL hROR1 ECD-his/hROR2 ECD-his/mROR1 ECD-his proteins prepared with PBS in Example 1a above and incubated at 4° C. overnight. The liquid was then discarded, and the plates were washed 3 times with PBST, blocked with 5% milk for 2 h at room temperature, and washed 3 times with PBST. The taken supernatant was added at 100 μL/well, and the plates were incubated at room temperature for 1 h, followed by washing 3 times with PBST. 100 μL/well of secondary antibody (Sigma, Cat#: A8592) was added, the plates were incubated at room temperature for 1 h, and then washed. TMB was then added to the plates at 100 μL/well and incubated for 15 min at room temperature. Thereafter, the reaction was terminated and data were read.
(§2) a. Results of ELISA assay (the ELISA assay was performed according to the same procedures as in Example 2c, except that the added samples were recombinant antibodies and the secondary antibody was a-Fc (Genscript, Cat#: A01854))

Row | Binder | ELISA signal (called MFI)
15 | B1 | 0.0305
16 | B2 | 0.0305
17 | B3 | 0.028
18 | B4 | 0.049
19 | B5 | 0.0335
20 | B6 | 0.0335
21 | B7 | 0.0285
22 | B8 | 0.024
23 | B9 | 0.031
24 | B10 | 0.0305
25 | B11 | 0.0235
26 | B12 | 0.0315
27 | B13 | 0.0255
28 | B14 | 0.0235

The binders below were run against T3, human ROR1 (hROR1) on cells (human, UniProt Q01973 30-937) (assay: FACS, A549 cells).
T3 construct: whole, on cells; the cell line is named under assay; also called HEK293T-hROR1; 293T-hROR1
T3 sequence (Q01973 30-937): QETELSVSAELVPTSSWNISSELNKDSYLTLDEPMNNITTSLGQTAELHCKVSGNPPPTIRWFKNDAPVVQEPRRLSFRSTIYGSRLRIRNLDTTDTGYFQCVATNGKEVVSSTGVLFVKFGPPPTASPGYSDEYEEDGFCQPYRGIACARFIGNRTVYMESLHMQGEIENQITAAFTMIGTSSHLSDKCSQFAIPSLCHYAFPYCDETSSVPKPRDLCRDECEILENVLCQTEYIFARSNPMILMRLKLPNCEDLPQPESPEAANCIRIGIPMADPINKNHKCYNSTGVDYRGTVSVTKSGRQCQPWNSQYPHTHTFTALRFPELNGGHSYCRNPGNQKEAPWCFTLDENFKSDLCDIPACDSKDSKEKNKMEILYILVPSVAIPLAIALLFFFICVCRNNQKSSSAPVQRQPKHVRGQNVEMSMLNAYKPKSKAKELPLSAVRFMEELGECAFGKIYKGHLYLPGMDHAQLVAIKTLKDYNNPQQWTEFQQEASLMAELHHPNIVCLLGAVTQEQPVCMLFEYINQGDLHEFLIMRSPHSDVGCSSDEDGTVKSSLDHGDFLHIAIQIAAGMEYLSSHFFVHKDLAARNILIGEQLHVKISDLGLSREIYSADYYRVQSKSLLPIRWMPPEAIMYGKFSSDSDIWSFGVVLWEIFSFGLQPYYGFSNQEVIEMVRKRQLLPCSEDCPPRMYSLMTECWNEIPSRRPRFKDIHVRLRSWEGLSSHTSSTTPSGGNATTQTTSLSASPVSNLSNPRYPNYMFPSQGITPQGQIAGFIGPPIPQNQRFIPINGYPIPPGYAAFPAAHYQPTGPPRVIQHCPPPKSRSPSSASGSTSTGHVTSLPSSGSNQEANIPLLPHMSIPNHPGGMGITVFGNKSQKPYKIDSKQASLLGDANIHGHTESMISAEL
Protocol: (§3) The binding properties were characterized by FACS. The recombinant antibodies obtained above were serially diluted to 9 different concentrations and incubated for 1 h, and then determined for the binding ability with HEK293T-hROR1, CHO-K1-cynoROR1 and A549 cell lines (endogenously expressing ROR1), respectively. The secondary antibody was then incubated for 1 h. The results are shown in FIG. 4-6 and Table 7-2 below.

Row | Binder | MAX(MFI)
29 | B1 | 4630
30 | B2 | 4750
31 | B3 | 4520
32 | B4 | 4970
33 | B5 | 4520
34 | B6 | 3920
35 | B7 | 4400
36 | B8 | 3960
37 | B9 | 3890
38 | B10 | 3700
39 | B11 | 4110
40 | B12 | 4050
41 | B13 | 4210
42 | B14 | 3450

These binders were tested against T3, human ROR1 (hROR1) on cells (assay: FACS, HEK293T-hROR1 cells).
Protocol: as §3

Row | Binder | fold lower EC50 than reference PR000374 [fold]
43 | B1 | 10
44 | B2 | 10
45 | B3 | 10
46 | B4 | 10
47 | B5 | 10
48 | B6 | 10
49 | B7 | 10
50 | B8 | 10
51 | B9 | 10
52 | B10 | 10
53 | B11 | 10
54 | B12 | 10
55 | B13 | 10
56 | B14 | 10

What follows are binders tested against T4, cynomolgus ROR1 (cynoROR1) on CHO-K1 cells (cynomolgus, UniProt A0A2K5WTX7 30-937) (assay: FACS, CHO-K1-cynoROR1 cells).
T4 construct: whole, on cells; also called CHO-K1-cynoROR1; CHO-K1-cyROR1
Protocol: as §3

Row | Binder | MAX(MFI)
57 | B1 | 29700
58 | B2 | 23300
59 | B3 | 27200
60 | B4 | 27300
61 | B5 | 30700
62 | B6 | 26000
63 | B7 | 22100
64 | B8 | 18200
65 | B9 | 22200
66 | B10 | 17200
67 | B11 | 28400
68 | B12 | 25000
69 | B13 | 27800
70 | B14 | 21200

Target: T3, human ROR1 (hROR1) on cells
Assay: FACS, HEK293T-hROR1 cells
Remark: another data set of the same source

Row | Binder | MFI [MFI]
71 | B1 | 50900
72 | B8 | 43100
73 | B9 | 43800

These binders were tested against T5, Human ROR1-ECD-his (human, UniProt Q01973 30-406) (assay: ELISA, plate coated with hROR1 ECD-his).
T5 construct: extracellular domain; bought, Acrobiosystems RO1-H522y; also called hROR1-ECD-his; hROR1 ECD-his
T5 sequence (Q01973 30-406): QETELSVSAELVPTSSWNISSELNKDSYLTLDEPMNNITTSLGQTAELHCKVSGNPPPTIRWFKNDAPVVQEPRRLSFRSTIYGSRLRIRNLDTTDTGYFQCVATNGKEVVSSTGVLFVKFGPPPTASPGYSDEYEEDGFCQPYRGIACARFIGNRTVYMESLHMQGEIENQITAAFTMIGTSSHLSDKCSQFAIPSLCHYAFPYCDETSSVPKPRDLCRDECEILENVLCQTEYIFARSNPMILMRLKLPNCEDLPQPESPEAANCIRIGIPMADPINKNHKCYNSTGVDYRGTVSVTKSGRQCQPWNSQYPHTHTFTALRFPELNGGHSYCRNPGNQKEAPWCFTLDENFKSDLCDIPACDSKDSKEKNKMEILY
Protocol: as §1, §2

Row | Binder | ELISA signal (called MFI)
74 | B1 | 2.38
75 | B2 | 2.24
76 | B3 | 2.28
77 | B4 | 2.47
78 | B5 | 2.48
79 | B6 | 2.53
80 | B7 | 2.35
81 | B8 | 2.38
82 | B9 | 2.48
83 | B10 | 2.45
84 | B11 | 2.38
85 | B12 | 2.44
86 | B13 | 2.51
87 | B14 | 2.38

What follows are binders tested against T3, human ROR1 (hROR1) on cells (assay: FACS, Panc-1 cells).

Row | Binder | MFI [MFI]
88 | B1 | 5590
89 | B8 | 4960
90 | B9 | 6230

The binders below were run against T1, ROR1 (antigen of the KD determination …) (assay: Octet, antigen form not stated).

Row | Binder | Response | koff [s⁻¹]
91 | B1 | 0.617 | 0.000152
92 | B8 | 0.601 | 9.38e-05
93 | B9 | 0.288 | 0.00498

Target: T2, hROR2ECD-his
Assay: ELISA, plate coated with hROR2 ECD-his
Remark: another data set of the same source
Protocol: as §1, §2
The corresponding values in the table are the measured median fluorescence intensity (MFI).

Row | Binder | binding result
94 | B1 | no binding
95 | B2 | no binding
96 | B3 | no binding
97 | B4 | no binding
98 | B5 | no binding
99 | B6 | no binding
100 | B7 | no binding
101 | B8 | no binding
102 | B9 | no binding
103 | B10 | no binding
104 | B11 | no binding
105 | B12 | no binding
106 | B13 | no binding
107 | B14 | no binding

These binders were tested against T3, human ROR1 (hROR1) on cells (assay: FACS, HEK293T-hROR1 cells; cytometer saturated).
Protocol: as §3

Row | Binder | MAX(MFI)
108 | B1 | 262000
109 | B2 | 262000
110 | B3 | 262000
111 | B4 | 262000
112 | B5 | 262000
113 | B6 | 262000
114 | B7 | 262000
115 | B8 | 262000
116 | B9 | 262000
117 | B10 | 262000
118 | B11 | 262000
119 | B12 | 262000
120 | B13 | 262000
121 | B14 | 262000
